Source: patent publication US20220370632A1 (HEIDELBERG PHARMA RESEARCH, published 2022)

Legend:
[1] = target: T1, human CD37 on CD37-positive human cell lines (MEC-1, MEC-2, Raji, Ramos) (human, UniProt P11049 1-281); test: cell-based or functional assay
T1 sequence: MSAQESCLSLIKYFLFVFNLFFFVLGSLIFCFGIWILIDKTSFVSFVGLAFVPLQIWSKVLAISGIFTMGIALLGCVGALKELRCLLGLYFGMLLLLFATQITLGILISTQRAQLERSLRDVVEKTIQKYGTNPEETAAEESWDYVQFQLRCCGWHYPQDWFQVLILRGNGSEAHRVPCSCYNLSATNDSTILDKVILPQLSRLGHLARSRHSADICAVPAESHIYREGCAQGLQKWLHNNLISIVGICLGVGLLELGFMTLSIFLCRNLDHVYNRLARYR

[2] = target: T1, human CD37 on CD37-positive human cell …; test: flow cytometry (FACS) on MEC-2 cells, median fluorescence against antibody concentration
[3] = target: T1, human CD37 on CD37-positive human cell …; test: flow cytometry (FACS) on Ramos cells, median fluorescence against antibody concentration

B1: chHH1-HDP-(XV) (antibody)
heavy: not shown
light: DIVMTQSHKLLSTSVGDRVSITCKASQDVSTAVDWYQQKPGQSPKLLINWASTRHTGVPDRFTGSGSGTDYTLTISSMQAEDLALYYCRQHYSTPFTFGSGTKLEIKRTVAAPSVFIFPPSDEQLKSGTASVVCLLNNFYPREAKVQWKVDNALQSGNSQESVTEQDSKDSTYSLSSTLTLSKADYEKHKVYACEVTHQGLSSPVTKSFNRGEC
modifications: amatoxin-linker moiety of formula (XV), DAR 3.36; cysteine residues carrying it not stated
- EC 50 [M], cytotoxicity in vitro on MEC-2 cells [1]: 6.06e-08 M
- EC 50 [M], cytotoxicity in vitro on Raji cells [1]: 6.1e-10 M
- EC 50 [M], cytotoxicity in vitro on Ramos cells [1]: 8.5e-11 M

B2: chHH1-HDP-D265C-(XV) (antibody)
heavy: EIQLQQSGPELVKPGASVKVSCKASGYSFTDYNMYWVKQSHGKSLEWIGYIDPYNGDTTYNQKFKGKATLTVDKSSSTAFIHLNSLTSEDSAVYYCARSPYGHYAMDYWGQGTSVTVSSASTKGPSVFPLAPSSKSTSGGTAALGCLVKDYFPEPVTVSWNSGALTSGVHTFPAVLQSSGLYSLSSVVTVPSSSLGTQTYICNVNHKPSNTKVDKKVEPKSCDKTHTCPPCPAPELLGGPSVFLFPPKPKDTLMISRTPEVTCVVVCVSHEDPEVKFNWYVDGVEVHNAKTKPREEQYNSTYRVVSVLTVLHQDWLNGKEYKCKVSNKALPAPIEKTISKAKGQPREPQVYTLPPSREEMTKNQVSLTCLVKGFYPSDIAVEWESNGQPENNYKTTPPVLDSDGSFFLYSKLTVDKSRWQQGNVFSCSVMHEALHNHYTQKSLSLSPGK
light: B1 light
modifications: amatoxin-linker moiety of formula (XV) on heavy chain 265Cys (EU numbering); DAR 2.80
- EC 50 [M], cytotoxicity in vitro on MEC-2 cells [1]: 1.11e-08 M
- EC 50 [M], cytotoxicity in vitro on Raji cells [1]: 1.63e-09 M
- EC 50 [M], cytotoxicity in vitro on Ramos cells [1]: 4.7e-10 M

B3: chHH1-HDP-D265C-(XIII) (antibody)
heavy: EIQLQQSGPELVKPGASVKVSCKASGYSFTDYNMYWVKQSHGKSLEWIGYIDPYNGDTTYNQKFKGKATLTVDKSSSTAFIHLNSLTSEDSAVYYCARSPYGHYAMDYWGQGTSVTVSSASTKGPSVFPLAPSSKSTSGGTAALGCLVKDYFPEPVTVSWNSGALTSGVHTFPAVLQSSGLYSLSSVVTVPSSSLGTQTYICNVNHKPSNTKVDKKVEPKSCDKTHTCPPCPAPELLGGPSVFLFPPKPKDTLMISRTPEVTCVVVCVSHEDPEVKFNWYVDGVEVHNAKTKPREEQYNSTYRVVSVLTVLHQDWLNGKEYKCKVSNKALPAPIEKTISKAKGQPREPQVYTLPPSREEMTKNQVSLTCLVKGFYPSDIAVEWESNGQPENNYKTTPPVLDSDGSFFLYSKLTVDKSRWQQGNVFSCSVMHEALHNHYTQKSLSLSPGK
light: B1 light
modifications: amatoxin-linker moiety of formula (XIII) on heavy chain 265Cys (EU numbering); DAR 1.96
- EC 50 [M], cytotoxicity in vitro on MEC-2 cells [1]: 5.41e-09 M
- EC 50 [M], cytotoxicity in vitro on Raji cells [1]: 6.2e-10 M
- EC 50 [M], cytotoxicity in vitro on Ramos cells [1]: 1.1e-10 M

B4: conjugate XXIV (antibody)
heavy: EIQLQQSGPELVKPGASVKVSCKASGYSFTDYNMYWVKQSHGKSLEWIGYIDPYNGDTTYNQKFKGKATLTVDKSSSTAFIHLNSLTSEDSAVYYCARSPYGHYAMDYWGQGTSVTVSSASTKGPSVFPLAPSSKSTSGGTAALGCLVKDYFPEPVTVSWNSGALTSGVHTFPAVLQSSGLYSLSSVVTVPSSSLGTQTYICNVNHKPSNTKVDKKVEPKSCDKTHTCPPCPAPEAAGGPSVFLFPPKPKDTLMISRTPEVTCVVVCVSHEDPEVKFNWYVDGVEVHNAKTKPREEQYNSTYRVVSVLTVLHQDWLNGKEYKCKVSNKALPAPIEKTISKAKGQPREPQVYTLPPSREEMTKNQVSLTCLVKGFYPSDIAVEWESNGQPENNYKTTPPVLDSDGSFFLYSKLTVDKSRWQQGNVFSCSVMHEALHNHYTQKSLSLSPGK
light: B1 light
modifications: amatoxin-linker moiety of formula (XIII) on heavy chain 265Cys (EU numbering); DAR printed as '-'
- EC 50 [M], cytotoxicity in vitro on MEC-2 cells [1]: 1.19e-08 M
- EC 50 [M], cytotoxicity in vitro on Raji cells [1]: 7.5e-10 M
- EC 50 [M], cytotoxicity in vitro on Ramos cells [1]: 8.6e-11 M

B5: chHH1-HDP-(XIII) (antibody)
heavy: not shown
light: B1 light
modifications: amatoxin-linker moiety of formula (XIII); DAR printed as '-'; cysteine residues carrying it not stated
- EC 50 [M], cytotoxicity in vitro on MEC-2 cells [1]: 5.59e-10 M
- EC 50 [M], cytotoxicity in vitro on Raji cells [1]: 4.8e-10 M
- EC 50 [M], cytotoxicity in vitro on Ramos cells [1]: 5.6e-11 M

B6: conjugate XXVI (antibody)
heavy: B4 heavy
light: B1 light
modifications: amatoxin-linker moiety of formula (XV) on heavy chain 265Cys (EU numbering); DAR 3.15
- EC 50 [M], cytotoxicity in vitro on MEC-2 cells [1]: 7.54e-09 M
- EC 50 [M], cytotoxicity in vitro on Raji cells [1]: 2.04e-09 M
- EC 50 [M], cytotoxicity in vitro on Ramos cells [1]: 3.2e-10 M

B7: chHH1-HDP-LALA-D265C (antibody, human IgG1, kappa, L234A L235A)
heavy: B4 heavy
light: B1 light
notes: Unconjugated chimeric antibody; Expressed in CHO or HEK293 cells; also called anti-CD37 monoclonal antibody chHH1-LALA-D265C; anti-CD37 chHH1-HDP-LALA-D265C
- EC50 (read off the curve) [2]: ~3 µg/mL
- EC50 (read off the curve) [3]: ~1 µg/mL

B8: chHH1-HDP-D265C-(XII) (antibody)
heavy: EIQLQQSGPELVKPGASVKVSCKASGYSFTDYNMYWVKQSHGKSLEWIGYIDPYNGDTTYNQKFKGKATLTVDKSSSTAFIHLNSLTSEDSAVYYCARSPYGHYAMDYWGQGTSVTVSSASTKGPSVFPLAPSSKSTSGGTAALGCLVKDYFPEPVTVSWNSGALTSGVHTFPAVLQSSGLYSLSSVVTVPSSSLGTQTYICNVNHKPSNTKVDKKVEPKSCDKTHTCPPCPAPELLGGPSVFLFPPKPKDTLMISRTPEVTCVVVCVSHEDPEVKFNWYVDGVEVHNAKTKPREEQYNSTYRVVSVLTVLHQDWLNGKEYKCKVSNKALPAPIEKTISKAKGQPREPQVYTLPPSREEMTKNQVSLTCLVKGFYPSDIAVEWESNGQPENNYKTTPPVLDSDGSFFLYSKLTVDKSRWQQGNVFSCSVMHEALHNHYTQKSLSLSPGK
light: B1 light
modifications: amatoxin-linker moiety of formula (XII) on heavy chain 265Cys (EU numbering); DAR 2.03
- EC 50 [M], cytotoxicity in vitro on MEC-2 cells [1]: 2.14e-08 M
- EC 50 [M], cytotoxicity in vitro on Raji cells [1]: 3.9e-09 M
- EC 50 [M], cytotoxicity in vitro on Ramos cells [1]: 2.2e-10 M
